Laboratory results published in patent US9212231B2, “TRAIL R2-specific multimeric scaffolds” (MEDIMMUNE, LLC, dated 2015).

Legend:
[1] = biological target: T1, TRAIL R2 expressed on the cell surface (human, UniProt O14763); assay: cell-based or functional assay
[2] = biological target: T1, TRAIL R2 expressed on the cell surface; assay: cell-based or functional assay; remark: listed apart in the source
[3] = biological target: Murine CD40L on the Th2 cell line D10.G4.1 (murine, UniProt P27548); assay: cell-based or functional assay
[4] = biological target: recombinant Murine CD40L (E. coli produced) (murine, UniProt P27548); assay: biosensor competition: inhibition of Murine CD40L (0.5 µg/ml) binding to immobilised Murine CD40-Fc
[5] = biological target: T1, TRAIL R2 expressed on the cell surface; assay: cell-based or functional assay; remark: listed apart in the source

B1: A3 (G6) (designed binder)
chain: SGGGGSAIEVKDVTDTTALITWAKPWVDPPPLWGCELAYGIKDVPGDRTTIDLQQKHTAYSIGNLKPDTEYEVSLICFDPYGMRSKPAKETFTTGGGGSGGGGSGGGGSAIEVKDVTDTTALITWAKPWVDPPPLWGCELAYGIKDVPGDRTTIDLQQKHTAYSIGNLKPDTEYEVSLICFDPYGMRSKPAKETFTTGGGGSGGGGSGGGGSAIEVKDVTDTTALITWAKPWVDPPPLWGCELAYGIKDVPGDRTTIDLQQKHTAYSIGNLKPDTEYEVSLICFDPYGMRSKPAKETFTTGGGGSGGGGSGGGGSAIEVKDVTDTTALITWAKPWVDPPPLWGCELAYGIKDVPGDRTTIDLQQKHTAYSIGNLKPDTEYEVSLICFDPYGMRSKPAKETFTTGGGGSGGGGSGTLGHHHHHHHH
EC50, killing of Jurkat cells [1]: 0.05 nM
Maximum Inhibition %, Jurkat cells [1]: 83%
EC50, killing of Colo205 cells [2]: 0.04 nM
Maximum Inhibition %, Colo205 cells [2]: 97%

B2: C1(M13) (designed binder)
chain: AIEVKDVTDTTALITWHDAFGYDFGCELTYGIKDVPGDRTTIDLPDHFHNYSIGNLKPDTEYEVSLICANDHGFDSNPAKETFTTAGGGGSRLDAPGQIEVKDVTDTTALITWHDAFGYDFGCELTYGIKDVPGDRTTIDLPDHFHNYSIGNLKPDTEYEVSLICANDHGFDSNPAKETFTTGGGTLGHHHHHHHH
IC50, inhibition of Murine CD40L-induced CD86 expression on CD19 gated B cells [3]: 100000 to 200000 nM
IC50 [4]: 29 nM

B3: A5(G6) (designed binder)
chain: SGGGGSAIEVKDVTDTTALITWAKPWVDPPPLWGCELAYGIKDVPGDRTTIDLQQKHTAYSIGNLKPDTEYEVSLICFDPYGMRSKPAKETFTTGGGGSGGGGSGGGGSAIEVKDVTDTTALITWAKPWVDPPPLWGCELAYGIKDVPGDRTTIDLQQKHTAYSIGNLKPDTEYEVSLICFDPYGMRSKPAKETFTTGGGGSGGGGSGGGGSAIEVKDVTDTTALITWAKPWVDPPPLWGCELAYGIKDVPGDRTTIDLQQKHTAYSIGNLKPDTEYEVSLICFDPYGMRSKPAKETFTTGGGGSGGGGSGGGGSAIEVKDVTDTTALITWAKPWVDPPPLWGCELAYGIKDVPGDRTTIDLQQKHTAYSIGNLKPDTEYEVSLICFDPYGMRSKPAKETFTTGGGGSGGGGSGTGSAMASGGGGSAIEVKDVTDTTALITWAKPWVDPPPLWGCELAYGIKDVPGDRTTIDLQQKHTAYSIGNLKPDTEYEVSLICFDPYGMRSKPAKETFTTGGGGSGGGGSGGGGSAIEVKDVTDTTALITWAKPWVDPPPLWGCELAYGIKDVPGDRTTIDLQQKHTAYSIGNLKPDTEYEVSLICFDPYGMRSKPAKETFTTGGGGSGGGGSGGGGSAIEVKDVTDTTALITWAKPWVDPPPLWGCELAYGIKDVPGDRTTIDLQQKHTAYSIGNLKPDTEYEVSLICFDPYGMRSKPAKETFTTGGGGSGGGGSGGGGSAIEVKDVTDTTALITWAKPWVDPPPLWGCELAYGIKDVPGDRTTIDLQQKHTAYSIGNLKPDTEYEVSLICFDPYGMRSKPAKETFTTGGGGSGGGGSGTLGHHHHHHHH
EC50, killing of Jurkat cells [1]: 0.0001 nM
Maximum Inhibition %, Jurkat cells [1]: 100%
EC50, killing of Colo205 cells [2]: 0.0005 nM
Maximum Inhibition %, Colo205 cells [2]: 100%
IC50 of cell killing, 786-0 cells (CellTiter-Glo) [5]: > 10 nM
IC50 of cell killing, BT-649 cells (CellTiter-Glo) [5]: > 10 nM
IC50 of cell killing, CaCo-2 cells (CellTiter-Glo) [5]: 0.044 nM
IC50 of cell killing, HPAF-II cells (CellTiter-Glo) [5]: 0.016 nM
IC50 of cell killing, HT29 cells (CellTiter-Glo) [5]: 0.01 nM
IC50 of cell killing, Hep3B cells (CellTiter-Glo) [5]: 0.023 nM
IC50 of cell killing, Hep G2 cells (CellTiter-Glo) [5]: 0.04 nM
IC50 of cell killing, Hs766T cells (CellTiter-Glo) [5]: > 10 nM
IC50 of cell killing, LoVo cells (CellTiter-Glo) [5]: 0.005 nM
IC50 of cell killing, NCI-H23 cells (CellTiter-Glo) [5]: > 10 nM
IC50 of cell killing, NCI-H522 cells (CellTiter-Glo) [5]: > 10 nM
IC50 of cell killing, SKHEP-1 cells (CellTiter-Glo) [5]: 0.055 nM
IC50 of cell killing, SNB-75 cells (CellTiter-Glo) [5]: > 10 nM
IC50 of cell killing, SNU-387 cells (CellTiter-Glo) [5]: > 10 nM
IC50 of cell killing, SNU-398 cells (CellTiter-Glo) [5]: > 10 nM
IC50 of cell killing, SNU-475 cells (CellTiter-Glo) [5]: > 10 nM
IC50 of cell killing, SW820 cells (CellTiter-Glo) [5]: > 10 nM
IC50 of cell killing, SW837 cells (CellTiter-Glo) [5]: > 10 nM
IC50 of cell killing, T84 cells (CellTiter-Glo) [5]: 0.247 nM
